Laboratory results as given in paper PMC10132805 (Nature Communications, 2023).
No end group written: not given here. *: point of attachment. FITC = O=C1OC2(c3ccc(O)cc3Oc3cc(O)ccc32)c2ccc(NC(=S)*)cc21

B1: tumor susceptibility gene 101 protein UEV domain (TSG101 UEV) (domain or fragment)
chain: AVSESQLKKMVSKYKYRDLTVRETVNVITLYKDLKPVLDSYVFNDGSSRELMNLTGTIPVPYRGNTYNIPICLWLLDTYPYNPPICFVKPTSSMTIKTGKHVDANGKIYLPYLHEWKHPQSDLLGLIQVMIVVFGDEPPVFSRP
B2: VHS domain of ADP-ribosylation factor-binding protein GGA3 (GGA3 VHS) (domain or fragment)
chain: ATNPSNRQEDWEYIIGFCDQINKELEGPQIAVRLLAHKIQSPQEWEALQALTVLEACMKNCGRRFHNEVGKFRFLNELIKVVSPKYLGDRVSEKVKTKVIELLYSWTMALPEEAKIKDAYHMLKRQGIVQS
B3: C terminal domain of polyadenylate-binding protein 1 (PABP1 PABC) (domain or fragment)
chain: QEPLTASMLASAPPQEQKQMLGERLFPLIQAMHPTLAGKITGMLLEIDNSELLHMLESPESLRSKVDEAVAVLQAHQA
notes: also called PABPC1 PABC; PABP1 C

Target: T1, N-terminal domain of clathrin (human, UniProt Q00610 1-364)
T1 construct: also called CLTC NTD; CLTC-NTD
T1 sequence: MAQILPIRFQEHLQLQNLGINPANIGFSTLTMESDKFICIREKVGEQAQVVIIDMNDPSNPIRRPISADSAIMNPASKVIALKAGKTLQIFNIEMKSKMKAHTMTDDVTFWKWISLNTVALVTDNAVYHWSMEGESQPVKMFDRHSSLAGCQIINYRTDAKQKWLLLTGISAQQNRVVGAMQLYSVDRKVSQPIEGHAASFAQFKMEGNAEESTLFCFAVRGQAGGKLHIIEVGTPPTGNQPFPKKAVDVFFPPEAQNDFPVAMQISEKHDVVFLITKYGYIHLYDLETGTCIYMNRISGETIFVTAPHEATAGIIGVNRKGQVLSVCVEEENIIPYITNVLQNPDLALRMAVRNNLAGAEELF
Conditions: both partners purified

VDGAADLIDFSVPTDE [mu-NS_(705-720) (MRV1) peptide]: binds.

Target: T2, C terminal domain of polyadenylate-binding protein 1 (human, UniProt P11940 544-623)
T2 construct: also called PABP1 PABC; PABC
Conditions: both partners purified

T2 sequence (P11940 544-623): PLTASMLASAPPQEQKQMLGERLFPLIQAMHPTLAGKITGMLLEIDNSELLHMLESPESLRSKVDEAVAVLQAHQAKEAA

TTGLNPTAVPFTLRNL [P/V/C_(183-198) (NiV) peptide]: binds.
HPLLNPSALEFNPSQT [N_(351-366) (HCoV 229E) peptide]: binds.
KSNLNPNAKEFVPGVK (peptide, UniProt Q9BPZ3 108-123, looked up, also called PAIP2 peptide) [PABP-interacting protein 2 peptide PAIP2_(108-123)]: binds.

In the case of SAGLNPAAVPFVPKNQ [P/V/C_(183-198) (HeV) peptide], the “fold weaker affinity than PAIP2(108-123)” value is reported as 10 fold.

Target: B3
Conditions: both partners purified

MSKLSVNAPEFYPSGY [PAIP1 125-140 (Human)] and SAGLNPAAVPFVPKNQY [P/V/C 183-198 (HeV)] are within 1.5-fold of each other in Kd: 1.58 ± 0.08 µM for the first, 2 ± 0.3 µM for the second.

Going from KSNLNPNAKEFVPGVKY [PAIP2 108-123 (Human)] to TTGLNPTAVPFTLRNLY [P/V/C 183-198 (NiV)], the Kd rises from 0.16 ± 0.2 µM to 14.6 ± 0.8 µM (91-fold). The first binds more tightly here.

Target: B1
Conditions: both partners purified

Compared with MRRVTVPTAPPAYADIGYPM [VP40 1-20 (SEBOV)], NLKLTEPTAPMIHNYM [Nsp4 127-142 (BAV)] is 5.2-fold higher in Kd: 12.2 ± 0.3 µM for the first, 64 ± 4 µM for the second. The first binds more tightly here.

Going from QSIAREPSAPSIPTPAY [PDCD6IP 711-727 (Human)] to TPEPVVPTAPELRPSTY [MDC1 1280-1295 (Human)], the Kd falls from 152 ± 1 µM to 28 ± 0.7 µM (5.4-fold).

First: VDEEKGLYPNLKLTEPTAPMIHNYM [Nsp4 118-142 (BAV)]
Second: {FITC}-GLIPTAPPAD [FITC - gag 453-462 (HIV2)]
The Kd of the first is 24-fold higher: 73 ± 2 µM for the first, 3.1 ± 0.2 µM for the second.

Target: VP0 79-94 (HPeV5) (Human parechovirus 5 (strain CT86-6760) …)
Conditions: both partners purified

B1 showed a Kd of 75 ± 0.7 µM.

Target: P1 54-69 (SFV) (Semliki forest virus (SFV))
Conditions: both partners purified

In the case of B2, the Kd is reported as 82 ± 5 µM.

Target: N 2-17 (BeV) (Berne virus (BEV))
Conditions: both partners purified

For B3, the Kd was 2.7 ± 0.1 µM.

Target: B2
Conditions: both partners purified

Going from PDDDDLWLPPPEYIPL [M 26-41 (RABV)] to YKLVSFHDDSDEDLLHI [IGF2R 2476-2491 (Human)], the Kd falls from 148 ± 8 µM to 4.7 ± 0.2 µM (31-fold). The second binds more tightly here.

Going from {FITC}-DDSDEDLLHI [FITC - IGF2R 2482-2491 (Human)] to YQLGEESEERDDHLLPM [M6PR 262-277 (Human)], the Kd rises from 4.2 ± 0.4 µM to 21 ± 1 µM (5-fold). The first binds more tightly here.

Target: T3, GAE domain of ADP-ribosylation factor-binding protein GGA3 (GGA3 GAE) (human, UniProt Q9NZ52 594-715)
T3 construct: also called GGA3 ear
T3 sequence (looked up): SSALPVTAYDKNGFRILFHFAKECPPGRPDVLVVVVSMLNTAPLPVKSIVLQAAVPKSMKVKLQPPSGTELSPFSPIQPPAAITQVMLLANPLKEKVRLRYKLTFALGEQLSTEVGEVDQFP
Conditions: both partners purified

Compared with SSLADDFGEFSLFGEY [SYNRG 664-679 (Human)], TSGNGDFGDWSAFNQA [CLINT1 366-381 (Human)] is 3.1-fold higher in Kd: 11.2 ± 0.3 µM for the first, 35 ± 3 µM for the second. The first binds more tightly here.

First: {FITC}-DESDFGPLVGAD [FITC - RABEP1 435-446 (Human)]
Second: DPDDGSYGEYQSYSEN [NP 460-485 (ZEBOV)]
The Kd of the first is 5.6-fold lower: 1.9 ± 0.1 µM for the first, 10.6 ± 0.5 µM for the second.

Compared with SSPERGWSDYTSGANN [P/V/C 130-145 (NiV)], NLDESDFGPLVGADSVY [RABEP1 433-448 (Human)] is 28-fold lower in Kd: 48 ± 6 µM for the first, 1.7 ± 0.3 µM for the second.

Target: T4, Mu homology domain (MHD) of the AP-2 subunit mu (AP2M1 MHD) (human, UniProt Q96CW1 170-434)
T4 sequence (looked up): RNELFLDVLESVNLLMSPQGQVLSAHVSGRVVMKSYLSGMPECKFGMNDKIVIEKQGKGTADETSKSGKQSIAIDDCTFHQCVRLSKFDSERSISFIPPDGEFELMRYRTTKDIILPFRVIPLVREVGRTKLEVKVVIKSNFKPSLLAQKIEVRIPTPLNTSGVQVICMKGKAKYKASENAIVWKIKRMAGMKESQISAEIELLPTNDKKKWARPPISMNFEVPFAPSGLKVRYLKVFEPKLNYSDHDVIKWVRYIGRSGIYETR
Conditions: both partners purified

First: EKKRGNYSRLDDRQVR [F 519-534 (HeV)]
Second: ANEIAAYALLADDLPP [N 124-139 (MuV)]
The Kd of the first is 3.5-fold higher: 14 ± 1 µM for the first, 4 ± 0.1 µM for the second. The second binds more tightly here.

SIEELEYQRLVTSLSK [L 177-192 (OLVV)] and VNVGEQYQQLREAATE [NP 334-349 (ZEBOV)] are within 1.5-fold of each other in Kd: 10.9 ± 0.1 µM for the first, 9.51 ± 0.07 µM for the second.

WLPPPEYVPLHEISSK [M 32-47 (WCBV)] and NLNRVRYSKLDENGVY [Nsp4 75-90 (BAV)] are within 1.5-fold of each other in Kd: 12 ± 0.4 µM for the first, 15.9 ± 0.2 µM for the second.
